Results on 31 molecules are retold here after patent publication US20180362585A1 (Bicycle, published 2018).

Broadly, the Ki is a measure of affinity in units of concentration, obtained from inhibition or displacement. A high value points to lower affinity. As usually defined, the IC50 is the concentration needed to halve the response being measured. A higher IC50 goes with weaker potency in that assay.

The labels stand for the following.
B1: Ac-(06-34-18) Scram2 (peptide)
peptide: Ac-CWASPRCLHQDLC-NH2
modifications: linker 1-7-13 via TBMB
SMILES: CC(=O)N[C@H]1CSCc2cc3cc(c2)CSC[C@H](NC(=O)[C@H](CCCNC(=N)N)NC(=O)[C@@H]2CCCN2C(=O)[C@H](CO)NC(=O)[C@H](C)NC(=O)[C@H](Cc2c[nH]c4ccccc24)NC1=O)C(=O)N[C@@H](CC(C)C)C(=O)N[C@@H](Cc1c[nH]cn1)C(=O)N[C@@H](CCC(N)=O)C(=O)N[C@@H](CC(=O)O)C(=O)N[C@@H](CC(C)C)C(=O)N[C@H](C(N)=O)CSC3
B2: Ac-(06-34-18) Scram1 (peptide)
peptide: Ac-CPSAWRCLHQDLC-NH2
modifications: linker 1-7-13 via TBMB
SMILES: CC(=O)N[C@H]1CSCc2cc3cc(c2)CSC[C@H](NC(=O)[C@H](CCCNC(=N)N)NC(=O)[C@H](Cc2c[nH]c4ccccc24)NC(=O)[C@H](C)NC(=O)[C@H](CO)NC(=O)[C@@H]2CCCN2C1=O)C(=O)N[C@@H](CC(C)C)C(=O)N[C@@H](Cc1c[nH]cn1)C(=O)N[C@@H](CCC(N)=O)C(=O)N[C@@H](CC(=O)O)C(=O)N[C@@H](CC(C)C)C(=O)N[C@H](C(N)=O)CSC3

Numbered stars: 1 amine (or outer) side, 2 acyl side, 3 side chain; on linkers, the order of the positions; unused ones are H or OH. Bridge positions count the residues as written; N and C are the ends. Square brackets hold non-standard residues; d marks the D form. Ends that are not written are not given here. TBMB = c1c(C[*:1])cc(C[*:3])cc1C[*:2]; Sar = CNCC(=O)O

In the first experiment the target is T1, human plasma Kallikrein (human, UniProt P03952 20-638).
T1 construct: also called hPK; human PK
T1 sequence (P03952 20-638 limits assumed): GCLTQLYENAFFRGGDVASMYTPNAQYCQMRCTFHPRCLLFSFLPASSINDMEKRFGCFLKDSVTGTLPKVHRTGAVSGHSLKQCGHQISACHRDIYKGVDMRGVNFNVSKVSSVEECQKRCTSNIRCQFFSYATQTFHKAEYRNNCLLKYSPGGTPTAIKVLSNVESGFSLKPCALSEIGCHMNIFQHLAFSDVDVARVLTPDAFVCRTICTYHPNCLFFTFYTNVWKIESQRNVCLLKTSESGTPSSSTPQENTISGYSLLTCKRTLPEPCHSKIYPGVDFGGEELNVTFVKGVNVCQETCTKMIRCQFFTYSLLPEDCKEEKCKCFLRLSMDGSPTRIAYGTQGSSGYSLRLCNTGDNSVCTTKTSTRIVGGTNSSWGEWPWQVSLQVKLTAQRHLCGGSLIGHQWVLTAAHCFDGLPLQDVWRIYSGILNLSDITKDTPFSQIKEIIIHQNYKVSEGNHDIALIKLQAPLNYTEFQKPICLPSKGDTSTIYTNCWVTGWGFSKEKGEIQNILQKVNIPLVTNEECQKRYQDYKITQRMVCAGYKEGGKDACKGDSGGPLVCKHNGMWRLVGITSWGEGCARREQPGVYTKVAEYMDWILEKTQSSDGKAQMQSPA
In words: phage binding assay. As for the experimental part:
Library transformant colonies, or selection output colonies, were picked and grown as individual cultures in 2TY broth containing selective antibiotic. The picked colonies were DNA-sequenced using a QIAgen PyroMark Q96 DNA sequencer to reveal the amino-acid substitution present in each clone, and were assayed for human plasma Kallikrein binding as follows. The phage-containing supernatant was harvested from the culture and phage were cyclised with tris bromomethyl benzene (TBMB) based on the methods of Heinis et al (Nature Chemical Biology vol. 5 pp 502-507 (2009)). The purified phage from this process were assayed for binding to biotinylated human plasma Kallikrein using a homogeneous plate-based binding assay; assay read-out measured on a BMG Labtech Pherastar FS plate reader. The quantitative binding data from duplicate assay samples was averaged (mean) and expressed as signal:background. […] The assay data was correlated with the peptide sequences.
Selections against human plasma Kallikrein were performed at a variety of stringencies (see Phage selections' in Methods above). All output sequences were identified and analysed for target binding (see ‘Randomisation of peptide domains—Assay of binding of individual clones’ in Methods above). Table 17 lists each unique sequence, its relative abundance in the selection output (frequency), and a rank number according to target binding strength.
In the case of CSLFDHCTHQDLC (linker 1-7-13 via TBMB, on phage), the “RANK (Kallikrein binding)” value turned out to be 40. On the same count and under the same terms, under CSHRRWCTHQDLC (linker 1-7-13 via TBMB (inferred), on phage) stands 41; under CSWPARCTHQDLC (linker 1-7-13 via TBMB, on phage), 1.

On to CSYPYRCTHQDLC (linker 1-7-13 via TBMB, on phage), for which the “RANK (Kallikrein binding)” value was found to be 26. Same read-out and setting: under CSYPIRCTHQDLC (linker 1-7-13 via TBMB, on phage) stands 18; under CSYPFRCTHQDLC (linker 1-7-13 via TBMB, on phage), 21; under CSYPWRCTHQDLC (linker 1-7-13 via TBMB, on phage), 33. The same measure, in the same setting: under CSQVVGCTHQDLC (linker 1-7-13 via TBMB, on phage) stands 38.

For the next experiment, the target named is T1, human plasma Kallikrein. In words: enzyme inhibition. As to the method: (§1) Functional enzyme assays were conducted in 10 mM Tris HCl, 150 mM NaCl, 10 mM MgCl2, 1 mM CaCl₂) and 1 mg/mL BSA (all Sigma UK) pH7.4 at 25° C. in solid black 96 well plates. […] Release of AMC was measured using a Pherastar FS (BMG Labtech), excitation 360 nm, emission 460 nm. The rate of the linear phase of the reaction, typically 5 to 45 minutes, was calculated in MARS data analysis software (BMG labtech). The rate was then used to calculate the IC50 and Ki in Prism (GraphPad).
In turn, ACTWPARCTHQNWCA (linker 2-8-14 via TBMB; not fully specified (N-terminus, C-terminus)) [06-09] yielded a Ki of 1.2 nM.

In turn, ACTWPARCTMQNWCA (linker 2-8-14 via TBMB; not fully specified (N-terminus, C-terminus)) [06-A2*] displayed a Ki of 181 nM.

The molecule ACSWPYRCLHQDYCA (linker 2-8-14 via TBMB; not fully specified (N-terminus, C-terminus)) [06-61] registered a Ki of 5.8 nM. On the same count and under the same terms, under ACRWPARCLTTSLCA (linker 2-8-14 via TBMB; not fully specified (N-terminus, C-terminus)) [06-59] stands 0.5 nM; under AC[Sar]WPARC[Sar]HQDLCA (linker 2-8-14 via TBMB; not fully specified (N-terminus, C-terminus), also called AC(N-MeG)WPARC(N-MeG)HQDLCA) [06-34-03 - N-MeGly1,6], 24.8 nM; under ACTYPYKCLHQNLCA (linker 2-8-14 via TBMB) [2A10], 4.98 nM. Regarding ACNWPYRCLHTDLCA (linker 2-8-14 via TBMB; not fully specified (N-terminus, C-terminus)) [06-157], the Ki is 3.3 nM.

With ACSWPARCVHQDLCA (linker 2-8-14 via TBMB; not fully specified (N-terminus, C-terminus)) [06-34-01], the IC50 came out at 0.15 nM. This counts as sub-nanomolar. The molecule ACRWPARCLHQDLCA (linker 2-8-14 via TBMB; not fully specified (N-terminus, C-terminus)) [06-34-05] displayed an IC50 of 0.076 nM.

In the case of ACSWPARCTHQDLCA (linker 2-8-14 via TBMB; not fully specified (N-terminus, C-terminus)) [06-34-03 (01 + 02)], the IC50 was 0.082 nM. This IC50 and that of the molecule before are within 1.5-fold of each other. Regarding ACSWPARCLHQDLCA (linker 2-8-14 via TBMB; not fully specified (N-terminus, C-terminus)) [06-34-18 (01 + 05)], the IC50 worked out at 0.07 nM and the Ki was determined as 0.04 nM.

As for ACSWPARCNHQDLCA (linker 2-8-14 via TBMB; not fully specified (N-terminus, C-terminus)) [06-57], the affinity corresponds to a Ki of 0.4 nM. Molecule ACSWPARCMHQDLCA (linker 2-8-14 via TBMB; not fully specified (N-terminus, C-terminus)) [06-34-17 (01 + 04)] returned an IC50 of 0.073 nM. Same read-out and setting: under ACRWPARCMHQDLCA (linker 2-8-14 via TBMB; not fully specified (N-terminus, C-terminus)) [06-34-04] stands 0.075 nM; under ACRWPARCTHQDLCA (linker 2-8-14 via TBMB; not fully specified (N-terminus, C-terminus)) [06-34-02], 0.16 nM. Turning to ACAWPAKCLTRELCA (linker 2-8-14 via TBMB; not fully specified (N-terminus, C-terminus)) [1B1], the Ki stood at 8.1 nM. In other words, the single-digit nanomolar range.

As to ACAWPARCAHQDLCA (linker 2-8-14 via TBMB; not fully specified (N-terminus, C-terminus), also called R1A/V6A) [06-34-03 - Ala1,6], the affinity, expressed as Ki, was 0.147 nM. On the same count and under the same terms, with ACRWPARCTHQNYCA (linker 2-8-14 via TBMB; not fully specified (N-terminus, C-terminus)) [06-54 (2A2) T] the figure was 0.49 nM; with ACADPWACLFRRPCA (linker 2-8-14 via TBMB; not fully specified (N-terminus, C-terminus)) [06-63 T], 1280 nM; with ACGVPYRCTHQEMCA (linker 2-8-14 via TBMB; not fully specified (N-terminus, C-terminus)) [06-64 T], 6.9 nM.

For ACGGYNNCRAFSYCA (linker 2-8-14 via TBMB; not fully specified (N-terminus, C-terminus)) [1F7], the Ki turned out to be 2.2 nM. This Ki lies about 3.1-fold lower than the previous one.

For another experiment, the target named is T2, rat plasma Kallikrein (rat, UniProt P14272 391-638, limits assumed).
T2 construct: domain: catalytic domain; also called rPK; rat PK
T2 sequence (P14272 391-638 limits assumed): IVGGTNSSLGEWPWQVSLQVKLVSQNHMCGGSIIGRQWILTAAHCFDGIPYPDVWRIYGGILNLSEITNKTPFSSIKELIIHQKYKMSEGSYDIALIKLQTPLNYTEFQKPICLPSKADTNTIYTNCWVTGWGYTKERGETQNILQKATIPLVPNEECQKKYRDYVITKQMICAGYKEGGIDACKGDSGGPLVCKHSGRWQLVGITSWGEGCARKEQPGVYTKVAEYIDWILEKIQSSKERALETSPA
Nature of the experiment: enzyme inhibition. As to the method: as §1
Take ACSWPARCVHQDLCA (linker 2-8-14 via TBMB; not fully specified (N-terminus, C-terminus)) [06-34-01]: 6.12 nM corresponded to half-maximal inhibition (IC50). On the same count and under the same terms, with ACRWPARCLHQDLCA (linker 2-8-14 via TBMB; not fully specified (N-terminus, C-terminus)) [06-34-05] the figure was 0.62 nM. Same read-out and setting: under ACSWPARCTHQDLCA (linker 2-8-14 via TBMB; not fully specified (N-terminus, C-terminus)) [06-34-03 (01 + 02)] stands 0.87 nM. Same read-out and setting: with ACSWPARCLHQDLCA (linker 2-8-14 via TBMB; not fully specified (N-terminus, C-terminus)) [06-34-18 (01 + 05)] the figure was 0.56 nM; with ACSWPARCMHQDLCA (linker 2-8-14 via TBMB; not fully specified (N-terminus, C-terminus)) [06-34-17 (01 + 04)], 0.44 nM. With ACRWPARCMHQDLCA (linker 2-8-14 via TBMB; not fully specified (N-terminus, C-terminus)) [06-34-04], the IC50 turned out to be 0.56 nM.

For the molecule ACRWPARCTHQDLCA (linker 2-8-14 via TBMB; not fully specified (N-terminus, C-terminus)) [06-34-02], the 50% inhibitory concentration (IC50) was determined as 1.09 nM.

The next experiment has as its target T1, human plasma Kallikrein. Nature of the experiment: phage binding assay. The source holds these as a separate data set.
Consider CSWPARCTHQDLC (linker 1-7-13 via TBMB, on phage), for which the “BINDING ASSAY SIGNAL” value is 110.

The next experiment has as its target T1, human plasma Kallikrein. In words: enzyme inhibition. The source holds these as a separate data set. As for the experimental part: as §1
Crucially, such modifications should not affect the potency against human or rat Kallikrein. An initial exploration regarding the role of the WPAR (SEQ ID No. 19) sequence/pharmacophore (FIG. 9, 10) was performed by replacing W₂P₃ with A₂A₃ or A₂Q₃ and by scrambling parts or the entire first loop of the bicycle.
In the case of B1, the Ki stood at 11400 nM. This lies in the double-digit micromolar range. Still for that read-out and setting: under B2 stands 1090 nM.
